# Assay results as given in PMC2191102.
# Molecular target: moth cytochrome c, MCC(99K), wild-type peptide peptide on I-Ek (mouse)
# Test: C1/2wt: antigen concentration for half-maximal IL-2 with wild-type I-Ek CHO APC
substance,measurement,value
2B4,EC50 of peptide,25 nM
